Assay results from FireProtDB (doi:10.1006/jmbi.1999.2772).

Details: Thermotoga maritima (strain ATCC 43589 / DSM 3109 / JCM 10099 / NBRC 100826 / MSB8), Thermal, DSC
[1] = pH 4, Sodium acetate 20 mM, reversible: yes
[2] = pH 4.5, Sodium acetate 20 mM, reversible: yes(94%)
[3] = pH 4.8, Sodium acetate 20 mM, reversible: yes(91%)
[4] = pH 5.7, Sodium cacodylate-HCl 20 mM, reversible: yes(97%)
[5] = pH 6, Sodium cacodylate-HCl 20 mM, reversible: yes(98%)
[6] = pH 6.1, Sodium cacodylate-HCl 20 mM, reversible: yes(97%)
[7] = pH 6.35, Sodium cacodylate-HCl 20 mM, reversible: yes
[8] = pH 6.75, Sodium cacodylate-HCl 20 mM, reversible: yes
[9] = pH 7, Sodium cacodylate-HCl 20 mM, reversible: yes(95%)
[10] = pH 7.2, Sodium phosphate 20 mM, reversible: yes(97%)
[11] = pH 7.25, Sodium cacodylate-HCl 20 mM, reversible: yes(98%)
[12] = pH 7.4, Sodium phosphate 20 mM, reversible: yes(98%)
[13] = pH 7.5, Sodium phosphate 20 mM, reversible: yes(97%)
[14] = pH 8.1, borate-NaOH 20 mM, reversible: yes(99%)
[15] = pH 8.4, borate-NaOH 20 mM, reversible: yes(97%)
[16] = pH 8.5, borate-NaOH 20 mM, reversible: yes(98%)
[17] = pH 8.9, borate-NaOH 20 mM, reversible: yes

Cold shock-like protein wild type, O54310, sequence (O54310 whole entry): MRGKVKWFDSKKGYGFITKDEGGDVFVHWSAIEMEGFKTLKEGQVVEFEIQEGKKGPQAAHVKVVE

Substance: Cold shock-like protein wild type, O54310
- Tm [1]: 87.9 °C
- heat capacity change of unfolding [1]: 0.36 kcal/mol/K
- unfolding enthalpy (calorimetric) [1]: 50.1 kcal/mol
- Tm [2]: 91.6 °C
- heat capacity change of unfolding [2]: 0.05 kcal/mol/K
- unfolding enthalpy (calorimetric) [2]: 56.2 kcal/mol
- Tm [3]: 94.1 °C
- heat capacity change of unfolding [3]: 0.22 kcal/mol/K
- unfolding enthalpy (calorimetric) [3]: 62 kcal/mol
- unfolding enthalpy (van 't Hoff) [3]: 57 kcal/mol
- Tm [4]: 93.3 °C
- heat capacity change of unfolding [4]: 0.08 kcal/mol/K
- unfolding enthalpy (calorimetric) [4]: 71.9 kcal/mol
- unfolding enthalpy (van 't Hoff) [4]: 68.3 kcal/mol
- Tm [5]: 92.1 °C
- heat capacity change of unfolding [5]: 0.17 kcal/mol/K
- unfolding enthalpy (calorimetric) [5]: 74.6 kcal/mol
- unfolding enthalpy (van 't Hoff) [5]: 71 kcal/mol
- Tm [6]: 91.2 °C
- heat capacity change of unfolding [6]: 0.55 kcal/mol/K
- unfolding enthalpy (calorimetric) [6]: 69.5 kcal/mol
- unfolding enthalpy (van 't Hoff) [6]: 64.5 kcal/mol
- Tm [7]: 89.6 °C
- heat capacity change of unfolding [7]: 0.5 kcal/mol/K
- unfolding enthalpy (calorimetric) [7]: 68 kcal/mol
- unfolding enthalpy (van 't Hoff) [7]: 63 kcal/mol
- Tm [8]: 85.8 °C
- heat capacity change of unfolding [8]: 0.18 kcal/mol/K
- unfolding enthalpy (calorimetric) [8]: 65 kcal/mol
- unfolding enthalpy (van 't Hoff) [8]: 58.3 kcal/mol
- Tm [9]: 82 °C
- heat capacity change of unfolding [9]: 0.36 kcal/mol/K
- unfolding enthalpy (calorimetric) [9]: 62.6 kcal/mol
- unfolding enthalpy (van 't Hoff) [9]: 60.8 kcal/mol
- Tm [10]: 83.1 °C
- heat capacity change of unfolding [10]: 0.22 kcal/mol/K
- unfolding enthalpy (calorimetric) [10]: 65.3 kcal/mol
- unfolding enthalpy (van 't Hoff) [10]: 61 kcal/mol
- Tm [11]: 82.8 °C
- heat capacity change of unfolding [11]: 0.4 kcal/mol/K
- unfolding enthalpy (calorimetric) [11]: 61.3 kcal/mol
- unfolding enthalpy (van 't Hoff) [11]: 57.5 kcal/mol
- Tm [12]: 80.8 °C
- heat capacity change of unfolding [12]: 0.38 kcal/mol/K
- unfolding enthalpy (calorimetric) [12]: 60.8 kcal/mol
- unfolding enthalpy (van 't Hoff) [12]: 55.7 kcal/mol
- Tm [13]: 81.1 °C
- heat capacity change of unfolding [13]: 0.11 kcal/mol/K
- unfolding enthalpy (calorimetric) [13]: 54.4 kcal/mol
- unfolding enthalpy (van 't Hoff) [13]: 50.4 kcal/mol
- Tm [14]: 81 °C
- heat capacity change of unfolding [14]: 0.01 kcal/mol/K
- unfolding enthalpy (calorimetric) [14]: 54.7 kcal/mol
- unfolding enthalpy (van 't Hoff) [14]: 51 kcal/mol
- Tm [15]: 77.5 °C
- heat capacity change of unfolding [15]: 0.5 kcal/mol/K
- unfolding enthalpy (calorimetric) [15]: 56.1 kcal/mol
- Tm [16]: 77.6 °C
- heat capacity change of unfolding [16]: 0.06 kcal/mol/K
- unfolding enthalpy (calorimetric) [16]: 53.9 kcal/mol
- unfolding enthalpy (van 't Hoff) [16]: 51.7 kcal/mol
- Tm [17]: 75.5 °C
- heat capacity change of unfolding [17]: 0.5 kcal/mol/K
- unfolding enthalpy (calorimetric) [17]: 56.1 kcal/mol
